Source: US20210340217A1, “NOVEL PEPTIDES AND COMBINATION OF PEPTIDES FOR USE IN IMMUNOTHERAPY AGAINST OVARIAN CANCER AND OTHER CANCERS” (Immatics Biotechnologies GmbH, priority 2017, published 2021)

Molecular target: HLA-B*44:02 (Homo sapiens, UniProt P01889, A223V/A65T/A93T/A95T/D201E/D98Y/E176V/E187L/E204Q/E69K/G107R/H137Y/K202T/L105A/L119I/N104T/N87E/Q56L/Q94N/R106L/R155S/R180D/S101N/S121R/S35A/S48T/T118I/V36M/W191S/Y140D/Y91S)
Assay: MHC binding assay (UV-ligand exchange, beta2m ELISA)
Conditions: peptide exchange yield
From the text: Candidate peptides for T cell based therapies according to the present invention were further tested for their MHC binding capacity (affinity). The individual peptide-MHC complexes were produced by UV-ligand exchange, where a UV-sensitive peptide is cleaved upon UV-irradiation, and exchanged with the peptide of interest as analyzed. Only peptide candidates that can effectively bind and stabilize the peptide-receptive MHC molecules prevent dissociation of the MHC complexes. To determine the yield of the exchange reaction, an ELISA was performed based on the detection of the light chain (β2m) of stabilized MHC complexes. The assay was performed as generally described in Rodenko et al. (Rodenko et al., 2006).
96 well MAXISorp plates (NUNC) were coated over night with 2 ug/ml streptavidin in PBS at room temperature, washed 4× and blocked for 1 h at 37° C. in 2% BSA containing blocking buffer. Refolded HLA-A*02:01/MLA-001 monomers served as standards, covering the range of 15-500 ng/ml. Peptide-MHC monomers of the UV-exchange reaction were diluted 100-fold in blocking buffer. Samples were incubated for 1 h at 37° C., washed four times, incubated with 2 ug/ml HRP conjugated anti-β2m for 1h at 37° C., washed again and detected with TMB solution that is stopped with […]. Absorption was measured at 450 nm. Candidate peptides that show a high exchange yield (preferably higher than 50%, most preferred higher than 75%) are generally preferred for a generation and production of antibodies or fragments thereof, and/or T cell receptors or fragments thereof, as they show sufficient avidity to the MHC molecules and prevent dissociation of the MHC complexes.

Row | Substance | Peptide exchange
1 | 174 (AEATARLNVF; listed as Homo sapiens) [compound 174] | “++++” (>75% = ++++)
2 | 208 (TEVSRTEAI; listed as Homo sapiens) [compound 208] | “++” (>20% = ++)
3 | 58 (GEMEQKQL; listed as Homo sapiens) [compound 58] | “++” (>20% = ++)
4 | 415 (REEDAALFKAW; listed as Homo sapiens) [compound 415] | “+++” (>50 = +++)
5 | 405 (NEIWTHSY; listed as Homo sapiens) [compound 405] | “+” (>10% = +)
6 | 185 (AERQPGAASL; listed as Homo sapiens) [compound 185] | “++” (>20% = ++)
7 | 177 (TEVGTMNLF; listed as Homo sapiens) [compound 177] | “+++” (>50 = +++)
8 | 183 (YEKGIMQKV; listed as Homo sapiens) [compound 183] | “++” (>20% = ++)
9 | 175 (AEIEPKADG; listed as Homo sapiens) [compound 175] | “++” (>20% = ++)
10 | 407 (AEHEGVSVL; listed as Homo sapiens) [compound 407] | “++” (>20% = ++)
11 | 419 (HEFGHVLGL; listed as Homo sapiens) [compound 419] | “++” (>20% = ++)
12 | 411 (LELPPILVY; listed as Homo sapiens) [compound 411] | “+” (>10% = +)
13 | 213 (KESIPRWYY; listed as Homo sapiens) [compound 213] | “++” (>20% = ++)
14 | 399 (RELLHLVTL; listed as Homo sapiens) [compound 399] | “+++” (>50 = +++)
15 | 52 (AEFLLRIFL; listed as Homo sapiens) [compound 52] | “++” (>20% = ++)
16 | 200 (AESIPTVSF; listed as Homo sapiens) [compound 200] | “+++” (>50 = +++)
17 | 206 (SESVTSRTSY; listed as Homo sapiens) [compound 206] | “+++” (>50 = +++)
18 | 402 (RELANDELIL; listed as Homo sapiens) [compound 402] | “++” (>20% = ++)
19 | 412 (QEILTQVKQ; listed as Homo sapiens) [compound 412] | “++” (>20% = ++)
20 | 192 (YEFKFPNRL; listed as Homo sapiens) [compound 192] | “+++” (>50 = +++)
21 | 198 (QEAARAAL; listed as Homo sapiens) [compound 198] | “++” (>20% = ++)
22 | 434 (KEAIREHQM; listed as Homo sapiens) [compound 434] | “++” (>20% = ++)
23 | 212 (MEQKQLQKRF; listed as Homo sapiens) [compound 212] | “+++” (>50 = +++)
24 | 429 (REKFIASVI; listed as Homo sapiens) [compound 429] | “++” (>20% = ++)

Row | Substance | Peptide exchange
25 | 406 (EDGRLVIEF; listed as Homo sapiens) [compound 406] | “+” (>10% = +)
26 | 397 (REGDTVQLL; listed as Homo sapiens) [compound 397] | “++” (>20% = ++)
27 | 214 (VEQTRAGSLL; listed as Homo sapiens) [compound 214] | “++” (>20% = ++)
28 | 195 (AEDKRHYSV; listed as Homo sapiens) [compound 195] | “++” (>20% = ++)
29 | 437 (TEAVVTNEL; listed as Homo sapiens) [compound 437] | “++” (>20% = ++)
30 | 427 (HESSSHHDL; listed as Homo sapiens) [compound 427] | “++” (>20% = ++)
31 | 197 (AEVLLPRLV; listed as Homo sapiens) [compound 197] | “+++” (>50 = +++)
32 | 413 (IEALSGKIEL; listed as Homo sapiens) [compound 413] | “++” (>20% = ++)
33 | 426 (PEKTTHSF; listed as Homo sapiens) [compound 426] | “+” (>10% = +)
34 | 57 (QESDLRLFL; listed as Homo sapiens) [compound 57] | “+++” (>50 = +++)
35 | 178 (NELFRDGVNW; listed as Homo sapiens) [compound 178] | “+++” (>50 = +++)
36 | 215 (SEDGLPEGIHL; listed as Homo sapiens) [compound 215] | “++” (>20% = ++)
37 | 55 (HETETRTTW; listed as Homo sapiens) [compound 55] | “+++” (>50 = +++)
38 | 59 (SENVTMKVV; listed as Homo sapiens) [compound 59] | “+++” (>50 = +++)
39 | 207 (TEARATSDSW; listed as Homo sapiens) [compound 207] | “+++” (>50 = +++)
40 | 423 (SEVPTGTTA; listed as Homo sapiens) [compound 423] | “++” (>20% = ++)
41 | 203 (IEHSTQAQDTL; listed as Homo sapiens) [compound 203] | “++” (>20% = ++)
42 | 438 (SEVDSPNVL; listed as Homo sapiens) [compound 438] | “+++” (>50 = +++)
43 | 205 (SEITRIEM; listed as Homo sapiens) [compound 205] | “++” (>20% = ++)
44 | 396 (REASGLLSL; listed as Homo sapiens) [compound 396] | “+++” (>50 = +++)
45 | 436 (REPGDIFSEL; listed as Homo sapiens) [compound 436] | “++” (>20% = ++)
46 | 435 (REEFVSIDHL; listed as Homo sapiens) [compound 435] | “++” (>20% = ++)
47 | 190 (YEVARILNL; listed as Homo sapiens) [compound 190] | “++” (>20% = ++)
48 | 53 (MEHPGKLLF; listed as Homo sapiens) [compound 53] | “+++” (>50 = +++)

Row | Substance | Peptide exchange
49 | 54 (AEITITTQTGY; listed as Homo sapiens) [compound 54] | “+++” (>50 = +++)
50 | 201 (AETILTFHAF; listed as Homo sapiens) [compound 201] | “+++” (>50 = +++)
51 | 202 (HESEATASW; listed as Homo sapiens) [compound 202] | “+++” (>50 = +++)
52 | 398 (SFEQVVNELF; listed as Homo sapiens) [compound 398] | “++” (>20% = ++)
53 | 403 (EEAQWVRKY; listed as Homo sapiens) [compound 403] | “++” (>20% = ++)
54 | 194 (KEVDPTSHSY; listed as Homo sapiens) [compound 194] | “++” (>20% = ++)
55 | 211 (EEKVFPSPLW; listed as Homo sapiens) [compound 211] | “+++” (>50 = +++)
56 | 414 (EDAALFKAW; listed as Homo sapiens) [compound 414] | “++” (>20% = ++)
57 | 199 (REIDESLIFY; listed as Homo sapiens) [compound 199] | “+++” (>50 = +++)
58 | 176 (AEIEPKADGSW; listed as Homo sapiens) [compound 176] | “+++” (>50 = +++)
59 | 408 (LEKALQVF; listed as Homo sapiens) [compound 408] | “++” (>20% = ++)
60 | 422 (SETTFSLIF; listed as Homo sapiens) [compound 422] | “+++” (>50 = +++)
61 | 210 (VEAADIFQNF; listed as Homo sapiens) [compound 210] | “+++” (>50 = +++)
62 | 179 (REAGDEFEL; listed as Homo sapiens) [compound 179] | “++” (>20% = ++)
63 | 191 (EEDAALFKAW; listed as Homo sapiens) [compound 191] | “+++” (>50 = +++)
64 | 184 (AELEALTDLW; listed as Homo sapiens) [compound 184] | “+++” (>50 = +++)
65 | 180 (REAGDEFELRY; listed as Homo sapiens) [compound 180] | “++” (>20% = ++)
66 | 416 (SEEETRVVF; listed as Homo sapiens) [compound 416] | “+++” (>50 = +++)
67 | 421 (GEPATTVSL; listed as Homo sapiens) [compound 421] | “++” (>20% = ++)
68 | 187 (GEAQTRIAW; listed as Homo sapiens) [compound 187] | “+++” (>50 = +++)
69 | 420 (FESHSTVSA; listed as Homo sapiens) [compound 420] | “+” (>10% = +)
70 | 410 (SEDPSKLEA; listed as Homo sapiens) [compound 410] | “+” (>10% = +)
71 | 193 (LEAQQEAL; listed as Homo sapiens) [compound 193] | “++” (>20% = ++)
72 | 186 (REGPEEPGL; listed as Homo sapiens) [compound 186] | “++” (>20% = ++)
